According to patent US7432419B2 (priority 2004, dated 2008):

Experiments:
[1] = system: Xylella fastidiosa (Xf strain "Stags Leap"); format: cell-based
E. coli strain HB 101 = format: cell-based
[2] = system: Xf outer-membrane protein mopB; format: biochemical, Xylella fastidiosa

Which results are given for Cecropin B [reference compound]?
bacterial growth inhibition (killing) of Xf [1]: some growth inhibition; bacterial growth inhibition (killing) of E. coli (E. coli strain HB 101): complete growth inhibition

B1: Elastase: Human Neutrophil Elastase (Sigma), used as surface recognition domain component (protein, listed as Homo sapiens)
chain: EIVGGRRARPHAWPFMVSLQLRGGHFCGATLIAPNFVMSAAHCVANVNVRAVRVVLGAHNLSRREPTRQVFAVQRIFENGYDPVNLLNDIVILQLNGSATINANVQVAQLPAQGRRLGNGVQCLAMGWGLLGRNRGIASVLQELNVTVVTSLCRRSNVCTLVRGRQAGVCFGDSGSPLVCNGLIHGIASFVRGGCASGLYPDAFAPVAQFVNWIDSIIQ
modifications: truncated neutrophil elastase protein
notes: Human Neutrophil Elastase (Sigma), used as surface recognition domain component
With B1 as the molecule, how does the “bacterial growth inhibition (killing) of Xf” value [1] read?
The value was “insufficient to inhibit bacterial growth”.

What about the “effect of elastase on Cecropin B-stimulated lysis of Xf cells” value [1] of the same molecule?
The value was “greatly enhances”.

What about the “bacterial growth inhibition (killing) of E. coli” value (E. coli strain HB 101) of the same molecule?
The value was “insufficient to inhibit bacterial growth”.

What about the “digestion of purified mopB” value [2] of the same molecule?
Its value is “at least partially digested”.
